Experiments:
[1] = Ap3A hydrolysis by NPP enzymes (linked malachite green assay, absorbance change at 259 nm, HPLC); format: biochemical
Description: NPP4 nucleotide substrates were identified by directly detecting the free phosphate (Pi) product using malachite green (ADP substrate) or by a linked hydrolysis assay with alkaline phosphatase combined with malachite green (lipid substrates and nucleotide substrates without terminal P1) to measure released Pi. 50 μM substrate P1 equivalents (e.g. 25 μM ADP) were treated with 50 nM NPP4 for 1 hr 37 min (lipids) or 3 hr 15 min (all other substrates). For substrates without terminal phosphates, 10 units of calf intestinal alkaline phosphatase (M0290S, 10,000 units/mL, New England Biolabs, Ipswich, Mass.) was added for a final reaction volume of 50 μL. 100 μL of malachite green (BIOMOL GREEN™, Enzo Life Sciences, Plymouth Meeting, Pa.) was added to quench the reactions. The amount of phosphate released was measured by absorbance at 620 nm by a Biotek Synergy Mx plate reader (Winooski, Vt.) in 96-well plates (3679, Corning Inc., Corning, N.Y.) and compared against a phosphate standard curve.
The kinetics of the steady state Ap3A/Ap4A cleavage by NPP4 was measured from time courses of absorbance change at 259 nm using a UV spectrophotometer with a 0.1 cm optical path length cuvette or a stopped-flow device with a 0.2 cm optical path length cell. The enzymology reactions in 50 mM Tris pH 8.0, 140 mM NaCl, 5 mM KCl, 1 mM MgCl2 and 1 mM CaCl2 were started by addition of 1 μM NPP4 to varying concentrations of Ap3A/Ap4A (up to 800 μM) solution (UV spectrophotometer) or by rapid mixing of NPP4 and Ap3A/Ap4A (stopped-flow). The substrate concentrations higher than 800 μM have absorption too high to be measured by a UV spectrophotometer and stopped-flow, and were therefore measured by HPLC. […] Therefore, the rate of a product production or enzyme turnover measured by the absorption change assay can be calculated by the rate of absorption change
[formula] according to the following formula;
[formula] where Δl is optical path length. The following absorption coefficients were used: Ap3A: 25.75 mM^−1 cm^−1. Ap4A: 25.4 mM^−1 cm^−1. AMP, ADP, and ATP: 15.4 mM^−1 cm^−1. ADP Receptor Inhibitor Assay for NPP4 Inhibition
The HPLC protocol used to measure Ap3A/Ap4A cleavage by NPP4 and for product identification is modified from that of Stocchi et al. (1985, Anal Biochem 146:118-24). The reactions containing varying concentrations of Ap3A/Ap4A in the same buffer as in the absorbance change assay were started by addition of 0.2-1 μM NPP4 and quenched at various time points by equal volume of 3 M formic acid, or 0.5 N KOH and re-acidified by glacial acetic acid to pH 6. The quenched reaction solution was diluted systematically and loaded a HPLC system (Waters, Milford Mass.) and substrates and products were monitored by UV absorbance at 254 or 259 nm. Substrates and products were separated on a C18, 5 μm 250×4.6 mm HPLC column (Higgins Analytical, Mountain View, Calif.), using 15 mM ammonium acetate pH 6.0 solution, with a 0% to 10% (or 20%) methanol gradient. The products and substrate were quantified according to the integration of their correspondent peaks and the formula:
[formula] where [substrate]0 is the initial substrate concentration. The extinction coefficients of Ap3A, Ap4A, AMP, ADP and ATP used in the formula were the same as those used in absorption change assay. If monitoring at 254 nm, substrate and product standards run on the same day as the reactions were used to convert integrated product/substrate peak areas to concentrations. […]

[2] = tested on: platelets in platelet rich plasma; experiment: Light transmission aggregometry (LTA) in platelet rich plasma; format: cell-based, human
Description: Whole blood from healthy voluntary donors was collected in accordance with an IRB-approved protocol into blue top vacutainer tubes containing 3.2% sodium citrate. Blood was centrifuged at 1000 RPM for 10 minutes at room temperature to collect platelet rich plasma (PRP). PRP in the supernatant was then transferred to fresh tubes, and the remainder of the specimen was centrifuged at 4000 RPM for 10 minutes to obtain platelet poor plasma (PPP). PRP was adjusted to a final platelet count of 250×10^6 platelets/mL with autologous PPP for use in aggregation studies. Potential donors were excluded if there was a history of a bleeding disorder or current anticoagulant use and donors were instructed to avoid NSAIDs for at least 7 days prior to donation. Approval for the human subjects involved in this research was sought and granted by the Committee for the Protection of Human Subjects, Dartmouth-Hitchcock Medical Center, where these studies were conducted in accordance with the Declaration of Helsinki.
Light transmission (i.e., optical) and lumi aggregometry were performed on up to four samples from the same individual simultaneously with a Chrono-Log Model 700 Whole Blood/Optical Lumi Aggregometer (Chrono-Log Corporation, Havertown, Pa.) using procedures provided by the manufacturer that are briefly summarized here.
(§1) Platelet aggregation was determined by measuring the change in light transmittance of stirred PRP over time after addition of various agonists. Prior to each experiment the aggregometer was standardized to reflect 100% and 0% light transmittance with PPP and PRP, respectively, from the donor whose platelets were used in each specific experiment. 500 μL PRP was added to cuvettes containing a magnetic stir bar and allowed to pre-warm to 37° C. in the aggregometer wells for 3 minutes prior to initiating aggregation reactions which were then conducted at 37° C. Aggregation reactions were initiated by direct addition of agonists and/or enzymes to warmed, stirred PRP, and were monitored for an increase in light transmittance for 10 minutes. The increase in light transmittance is directly proportional to the amount of aggregation and is amplified and digitized into a computer (HP Compaq, Hewlett-Packard, Palo Alto, Calif.) with the AGGRO/LINK8 for Windows software (Chrono-Log Corporation, Havertown, Pa.) to generate aggregation curves. […] The platelet aggregometry experiments for all concentrations of MRS 2395 (including the 0 μM point) were conducted with the plasma adjusted to a final concentration of 10% DMSO to solubilize the inhibitor.

[3] = tested on: platelets exposed to NSAIDs; experiment: LTA in platelet-rich plasma from an individual who had consumed ibuprofen; format: cell-based, human; settings: 20 nM NPP4; 3 μM ADP; donor took 800 mg ibuprofen 12 hours before
Description: as §1
NPP4 rescues platelets exposed to NSAIDs. […]

B1: NPP4: soluble recombinant extracellular domain of human NPP4 (NCBI AAH18054.1, residues 1-407 of SEQ ID NO:1), expressed in insect cells (protein, listed as Homo sapiens)
chain: MKLLVILLFSGLITGFRSDSSSSLPPKLLLVSFDGFRADYLKNYEFPHLQNFIKEGVLVEHVKNVFITKTFPNHYSIVTGLYEESHGIVANSMYDAVTKKHFSDSNDKDPFWWNEAVPIWVTNQLQENRSSAAAMWPGTDVPIHDTISSYFMNYNSSVSFEERLNNITMWLNNSNPPVTFATLYWEEPDASGHKYGPEDKENMSRVLKKIDDLIGDLVQRLKMLGLWENLNVIITSDHGMTQCSQDRLINLDSCIDHSYYTLIDLSPVAAILPKINRTEVYNKLKNCSPHMNVYLKEDIPNRFYYQHNDRIQPIILVADEGWTIVLNESSQKLGDHGYDNSLPSMHPFLAAHGPAFHKGYKHSTINIVDIYPMMCHILGLKPHPNNGTFGHTKCLLVDQWCINLPEA
- Ap3A cleavage / hydrolysis (qualitative) ([1]; linked assay or steady state enzymatic studies): detected cleavage
- maximum catalytic turnover rate (kcat) for Ap3A ([1]; substrate Ap3A): ~4 s⁻¹
- kcat, Ap3A Hydrolysis by NPP4 ([1]; substrate Ap3A, steady state): 4.2 s^−1NPP4^−1
- Km ([1]; substrate Ap3A, steady state, read-out: KM, Ap3A Hydrolysis by NPP4): 843 µM
- maximum aggregation ([2]; 100 nM NPP4 at 80 μM Ap3A): 80%
- maximum aggregation ([2]; 200 nM NPP4 at 80 μM Ap3A): 90%
- platelet aggregation response of enzyme in the presence of 80 μM Ap3A (qualitative) ([2]; 80 μM Ap3A, enzyme 50-200 nM): strong primary and secondary aggregation waves
- platelet aggregation response, agent alone (qualitative) ([2]; agent alone in PRP (Ap3A up to 160 μM; NPP4 100 nM)): does not trigger platelet aggregation
- effect on ADP-induced aggregation of NSAID-exposed platelets [3]: normalization of ADP-induced aggregation

From US11123408B2, “Compositions and methods for treating nonsteroidal anti-inflammatory drug (NSAID) associated coagulopathy, thrombocytopenia, glanzmann's thrombasthenia, and/or thrombosis” (YALE UNIVERSITY, priority 2011, dated 2021)
